From PMC6738653, “The (p)ppGpp-binding GTPase Era promotes rRNA processing and cold adaptation in Staphylococcus aureus” (PLoS Genetics, 2019) come the findings set out here.

For assay [1], the target named is Era fused to the SB (small bit of luciferase) (S. aureus). Briefly: split reporter (BiFC, NanoBiT); split luciferase (SB and LB fusions from pAP118) in S. aureus LAC*; 100 ng/ml Atet for 90 min, normalised to OD600 0.1, Nano-Glo Luciferase Assay; positive only if increased over both negative controls.
A further assay concerns the target T1, Era (Staphylococcus aureus, UniProt Q2FY06).
T1 sequence (Q2FY06 1-299): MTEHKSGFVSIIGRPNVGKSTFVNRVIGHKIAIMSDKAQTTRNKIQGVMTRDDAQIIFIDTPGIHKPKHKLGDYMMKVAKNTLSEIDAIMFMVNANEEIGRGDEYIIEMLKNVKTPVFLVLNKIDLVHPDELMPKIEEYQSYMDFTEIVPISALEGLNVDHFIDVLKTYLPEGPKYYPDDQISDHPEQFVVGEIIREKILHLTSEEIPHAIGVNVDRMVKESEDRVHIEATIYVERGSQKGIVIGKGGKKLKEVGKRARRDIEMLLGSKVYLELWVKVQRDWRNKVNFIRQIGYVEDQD
The assay is described as follows: DRaCALA with […]-ppGpp. In kind it is binding.

“full-length CshA fused to LB (large bit of luciferase) (natural protein)” gave a fold increase in luciferase activity upon co-expression in assay [1] of 4 fold.
As to `Nc1nc2c(ncn2[C@@H]2O[C@H](COP(=O)(O)OP(=O)(O)O)[C@@H](OP(=O)(O)OP(=O)(O)O)[C@H]2O)c(=O)[nH]1` [ppGpp], the affinity at Era, expressed as Kd, was 3.1 ± 0.4 µM.
